Data on one molecule can be found in patent US20220074937A1 (BIOSWAN LABORATORIES, published 2022).

The target of assay [1] is T1, FMC63 scFv-His tag recombinant protein.
T1 construct: Expressed in 293T cells, purified on Ni-NTA; also called FMC63 scFv recombinant protein; CD19 CAR scFv recombinant protein
Nature of the assay: ELISA, FMC63 scFv coated. On the procedure: (§1) Blocking was then performed with PBST (PBS containing 0.05% Tween 20) containing 5% BSA at 300 μL per well. […] The plate was washed with PBST and then incubated at room temperature for 30 minutes with goat anti-rabbit IgG polyclonal antibody coupled with horseradish peroxidase (HRP).

For assay [2], the target named is T2, FMC63 antibody (murine anti-CD19 monoclonal antibody, Merck & Millipore MAB1794).
T2 construct: Whole mouse monoclonal antibody coated on the ELISA plate; also called CD19 antibody
The assay is described as follows: ELISA, FMC63 antibody coated. How it is done: as §1
Background: In an ELISA, binding on a coated surface is turned into a signal by an enzyme label.

Assay [3] has as its target T3, CD19 CAR containing FMC63 scFv, on the cell surface (CD19 CAR-T cells, CD19 CAR-293T cells).
T3 construct: Chimeric antigen receptor brought into T cells or 293T cells by lentivirus; also called FMC63 scFv CD19 CAR; CD19 CAR scFv on the cell surface; not shown: hinge, transmembrane and intracellular signalling regions of the CAR
Nature of the assay: flow cytometry on CD19 CAR-293T cells. On the procedure: (§2) T cells were infected with CD19 CAR lentivirus or BCMA CAR lentivirus to obtain corresponding CAR-T cells. […] 2×10⁵ cells were suspended in 50 μL FACS buffer. 50 μL antibody solution was then added to 50 μL cell suspension and the mixture was incubated on ice for 30 minutes. The cells were then washed twice with cold FACS buffer. […] Table 1) and the mixture was incubated on ice for 30 minutes, after that the cells were washed twice with cold FACS buffer. The cells were resuspended in 200 μL FACS buffer and detected by flow cytometry.
(§3) CD19 CAR-293T cells were obtained by infecting 293T cells with CD19 CAR lentivirus. […] 2×10⁵ CD19 CAR-293T cells were suspended in 50 μL FACS buffer.
A general note: Flow cytometry measures light scatter and fluorescence of single cells or particles in a stream.

The target in assay [4] is T1, FMC63 scFv-His tag recombinant protein. The assay is described as follows: BLI (Fortebio Octet), FMC63 scFv on the sensor, R19mab 15.6-0.975 nM, 1:1 model. The source says: (§4) In short, the biosensor was balanced offline in PBS buffer for 600 seconds, and then detected online for 60 seconds to establish a baseline. […] Data Analysis 6.2 evaluation software was used to analyze the data, and a 1:1 combination model was used for kinetic analysis.

Assay [5] concerns the target T3, CD19 CAR containing FMC63 scFv, on the …. Nature of the assay: flow cytometry (MFI) on CD19 CAR-293T cells, R19mab titrated; printed beside EC50 = 1.58 nM, which the text gives. On the procedure: as §2, §3
Assay [6] has as its target T1, FMC63 scFv-His tag recombinant protein. Nature of the assay: BLI (Fortebio Octet), FMC63 scFv loaded on the sensor, R19mab at 15.6, 7.8, 3.9, 1.95 and 0.975 nM, 1:1 model; the same value stands in rows 1 to 5 of the drawn table (column Kd (M)); the text rounds it to 43 pM.
Excerpt: as §4
(BLI is a label-free optical method that tracks binding on a fibre tip over time.)

T1 sequence (scFv, as listed by the source): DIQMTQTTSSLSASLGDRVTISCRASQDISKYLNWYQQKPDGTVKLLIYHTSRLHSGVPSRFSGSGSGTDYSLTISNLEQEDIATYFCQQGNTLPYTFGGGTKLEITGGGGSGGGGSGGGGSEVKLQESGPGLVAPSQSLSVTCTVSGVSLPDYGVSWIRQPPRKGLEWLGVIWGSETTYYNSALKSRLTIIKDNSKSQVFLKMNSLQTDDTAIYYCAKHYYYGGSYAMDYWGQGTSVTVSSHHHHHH
T3 sequence (chain, as listed by the source): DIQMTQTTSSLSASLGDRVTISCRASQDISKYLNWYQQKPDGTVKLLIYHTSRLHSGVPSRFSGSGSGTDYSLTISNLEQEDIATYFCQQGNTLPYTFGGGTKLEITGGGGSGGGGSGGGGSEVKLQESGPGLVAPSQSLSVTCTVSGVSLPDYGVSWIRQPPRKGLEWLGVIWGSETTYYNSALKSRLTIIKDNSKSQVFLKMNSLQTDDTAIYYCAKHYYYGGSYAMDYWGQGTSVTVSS

B1: rabbit monoclonal antibody R19mab against FMC63 scFv (antibody, V domains shown)
VH: QSLEESGGRLVTPGTPLTLTCTVSGIDFRNYGVSWVRQAPGKGLEWIGIFSSSGSTYYATWAKGRFTISKASSTTVDLKMTSLTTEDTATYFCARHPGPTNGWKLWGPGTLVTVSS
VL: DVVMTQTPASVEAPVGGTVTIKCQASQSVSGYCSWYQQKPGQPPKLLIYRASTLESGVPSRFSGSGSGTDFTLTISDLECADAATYYCQSNYNSGSSSSAAAFGGGTEVVVK
notes: Rabbit monoclonal IgG, expressed in 293T cells and purified on Protein A; also called No.0231 (rabbit B cell clone)
The term EC50 denotes the concentration needed to bring the measured effect to its halfway point. As a reminder, the Kd is a measure of binding affinity in units of concentration. Consider B1, for which the EC50 was determined as 0.307 nM in assay [1], 0.253 nM in assay [2], 1.58 nM in assay [3] and 0.237 µg/mL in assay [5]. For the same molecule, the figures for the Kd in assay [4] and in assay [6] were 0.043 nM and 0.0431 nM, respectively.
